Eleven molecules from doi:10.1101/2022.08.17.504273 (bioRxiv, 2022) can be followed below.

The labels stand for the following.
B2: GST-CC1B (GST-Psc-DCTN1(residues 350-547)-GFP-6xHis) (domain or fragment)
chain: GSDGAASSYQLKQLEEQNARLKDALVRMRDLSSSEKQEHVKLQKLMEKKNQELEVVRQQRERLQEELSQAESTIDELKEQVDAALGAEEMVEMLTDRNLNLEEKVRELRETVGDLEAMNEMNDELQENARETELELREQLDMAGARVREAQKRVEAAQETVADYQQTIKKYRQLTAHLQDVNRELTNQQEASVERQQQ
B7: LIS1 (full length human) (natural protein)
chain: MVLSQRQRDELNRAIADYLRSNGYEEAYSVFKKEAELDVNEELDKKYAGLLEKKWTSVIRLQKKVMELESKLNEAKEEFTSGGPLGQKRDPKEWIPRPPEKYALSGHRSPVTRVIFHPVFSVMVSASEDATIKVWDYETGDFERTLKGHTDSVQDISFDHSGKLLASCSADMTIKLWDFQGFECIRTMHGHDHNVSSVAIMPNGDHIVSASRDKTIKMWEVQTGYCVKTFTGHREWVRMVRPNQDGTLIASCSNDQTVRVWVVATKECKAELREHEHVVECISWAPESSYSSISEATGSETKKSGKPGPFLLSGSRDKTIKMWDVSTGMCLMTLVGHDNWVRGVLFHSGGKFILSCADDKTLRVWDYKNKRCMKTLNAHEHFVTSLDFHKTAPYVVTGSVDQTVKVWECR
B10: JIP3^1–560 (domain or fragment)
chain: MMEIQMDEGGGVVVYQDDYCSGSVMSERVSGLAGSIYREFERLIHCYDEEVVKELMPLVVNVLENLDSVLSENQEHEVELELLREDNEQLLTQYEREKALRRQAEEKFIEFEDALEQEKKELQIQVEHYEFQTRQLELKAKNYADQISRLEERESEMKKEYNALHQRHTEMIQTYVEHIERSKMQQVGGNSQTESSLPGRRKERPTSLNVFPLADGTVRAQIGGKLVPAGDHWHLSDLGQLQSSSSYQCPQDEMSESGQSSAAATPSTTGTKSNTPTSSVPSAAVTPLNESLQPLGDYGVGSKNSKRAREKRDSRNMEVQVTQEMRNVSIGMGSSDEWSDVQDIIDSTPELDMCPETRLDRTGSSPTQGIVNKAFGINTDSLYHELSTAGSEVIGDVDEGADLLGEFSVRDDFFGMGKEVGNLLLENSQLLETKNALNVVKNDLIAKVDQLSGEQEVLRGELEAAKQAKVKLENRIKELEEELKRVKSEAIIARREPKEEAEDVSSYLCTESDKIPMAQRRRFTRVEMARVLMERNQYKERLMELQEAVRWTEMIRASRE
B11: dynein light intermediate chain (natural protein)
chain: MAPVGVEKKLLLGPNGPAVAAAGDLTSEEEEGQSLWSSILSEVSTRARSKLPSGKNILVFGEDGSGKTTLMTKLQGAEHGKKGRGLEYLYLSVHDEDRDDHTRCNVWILDGDLYHKGLLKFAVSAESLPETLVIFVADMSRPWTVMESLQKWASVLREHIDKMKIPPEKMRELERKFVKDFQDYMEPEEGCQGSPQRRGPLTSGSDEENVALPLGDNVLTHNLGIPVLVVCTKCDAVSVLEKEHDYRDEHLDFIQSHLRRFCLQYGAALIYTSVKEEKNLDLLYKYIVHKTYGFHFTTPALVVEKDAVFIPAGWDNEKKIAILHENFTTVKPEDAYEDFIVKPPVRKLVHDKELAAEDEQVFLMKQQSLLAKQPATPTRASESPARGPSGSPRTQGRGGPASVPSSSPGTSVKKPDPNIKNNAASEGVLASFFNSLLSKKTGSPGSPGAGGVQSTAKKSGQKTVLSNVQEELDRMTRKPDSMVTNSSTENEA

In series [1] the target is T1, JIP3 RH1 domain (JIP3 1-108) (mouse, UniProt Q9ESN9-5 1-108).
T1 sequence: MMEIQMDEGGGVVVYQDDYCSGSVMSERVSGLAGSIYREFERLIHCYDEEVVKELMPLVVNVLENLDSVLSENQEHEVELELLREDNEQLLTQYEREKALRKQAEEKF
Description: pull-down.

The series “LIS1 (full length human)” deals with B7. Description: pull-down.
The series “SEC-MALS” deals with the molecule itself. Description: SEC-MALS.
Series [2] has as its target B11. Description: cryo-EM structure.
For series [3], the target named is T2, mouse JIP3^185–505 (JIP3 186-505) (mouse, UniProt Q9ESN9-5 186-505).
T2 sequence: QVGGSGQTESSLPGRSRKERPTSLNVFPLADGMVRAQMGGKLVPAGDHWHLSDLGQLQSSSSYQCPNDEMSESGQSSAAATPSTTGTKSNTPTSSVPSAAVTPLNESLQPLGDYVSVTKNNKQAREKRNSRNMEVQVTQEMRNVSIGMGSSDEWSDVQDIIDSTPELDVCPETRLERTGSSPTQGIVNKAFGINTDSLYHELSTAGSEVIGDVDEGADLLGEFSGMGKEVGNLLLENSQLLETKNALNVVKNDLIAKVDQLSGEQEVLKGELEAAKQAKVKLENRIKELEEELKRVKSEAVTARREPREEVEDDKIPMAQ
Description: pull-down.

Series [4] addresses T3, mouse JIP3 186-505_L383A/E386A (mouse, UniProt Q9ESN9-5 186-505, L383A | E386A).
T3 sequence: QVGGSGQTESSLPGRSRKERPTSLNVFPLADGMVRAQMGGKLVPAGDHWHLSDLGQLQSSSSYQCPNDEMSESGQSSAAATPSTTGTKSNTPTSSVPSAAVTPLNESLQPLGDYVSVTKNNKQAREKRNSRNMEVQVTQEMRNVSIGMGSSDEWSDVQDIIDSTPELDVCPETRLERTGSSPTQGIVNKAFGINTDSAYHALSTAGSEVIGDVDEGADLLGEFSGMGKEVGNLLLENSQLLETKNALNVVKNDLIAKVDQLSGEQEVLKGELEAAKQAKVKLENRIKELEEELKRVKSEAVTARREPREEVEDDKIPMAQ
Description: pull-down.

Series [5] addresses B2. Description: pull-down.
The series “cryo-EM structure” concerns the molecule itself. Description: cryo-EM structure.
The target in series [6] is GST-CC1A/B (GST-Psc-DCTN1(residues 214-547)-GFP-6xHis) (human (by the printed UniProt entry), UniProt Q14203-1 214-547). Description: pull-down.
The target of series [7] is dynactin pointed end complex (ZZ-TEV-Arp11, p62, p25, p27) (human, UniProt Q9NZ32;Q9UJW0-1;Q9BTE1;O00399). Description: SEC. Background: Size exclusion chromatography separates by hydrodynamic size, large species first.
Sequence of dynactin pointed end complex (ZZ-TEV-Arp11, p62, p25, p27) (Q9NZ32 whole entry, chain 1 of 4): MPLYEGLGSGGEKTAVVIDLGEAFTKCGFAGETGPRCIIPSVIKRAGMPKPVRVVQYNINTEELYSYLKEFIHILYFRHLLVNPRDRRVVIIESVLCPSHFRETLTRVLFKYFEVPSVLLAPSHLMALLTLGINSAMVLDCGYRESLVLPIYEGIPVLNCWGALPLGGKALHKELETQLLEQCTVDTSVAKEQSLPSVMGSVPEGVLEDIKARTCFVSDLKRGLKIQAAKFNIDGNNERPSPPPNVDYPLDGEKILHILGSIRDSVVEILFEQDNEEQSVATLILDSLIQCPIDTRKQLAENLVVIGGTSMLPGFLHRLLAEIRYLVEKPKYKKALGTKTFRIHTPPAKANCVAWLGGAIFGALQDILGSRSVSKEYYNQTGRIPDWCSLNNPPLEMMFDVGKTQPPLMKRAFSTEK
Sequence of dynactin pointed end complex (ZZ-TEV-Arp11, p62, p25, p27) (Q9UJW0 whole entry, chain 2 of 4): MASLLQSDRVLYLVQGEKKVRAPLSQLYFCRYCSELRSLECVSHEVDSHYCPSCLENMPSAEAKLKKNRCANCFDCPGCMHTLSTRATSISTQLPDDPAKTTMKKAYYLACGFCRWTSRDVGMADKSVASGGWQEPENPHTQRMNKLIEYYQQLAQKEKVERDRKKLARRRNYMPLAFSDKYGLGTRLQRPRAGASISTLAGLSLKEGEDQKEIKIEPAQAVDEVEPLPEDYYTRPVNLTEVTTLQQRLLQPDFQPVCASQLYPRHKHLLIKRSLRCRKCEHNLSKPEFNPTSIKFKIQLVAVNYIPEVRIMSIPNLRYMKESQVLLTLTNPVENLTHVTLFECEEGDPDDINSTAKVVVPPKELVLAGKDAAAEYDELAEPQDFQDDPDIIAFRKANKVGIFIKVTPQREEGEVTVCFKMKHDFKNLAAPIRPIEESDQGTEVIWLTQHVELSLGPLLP
Sequence of dynactin pointed end complex (ZZ-TEV-Arp11, p62, p25, p27) (Q9BTE1 whole entry, chain 3 of 4): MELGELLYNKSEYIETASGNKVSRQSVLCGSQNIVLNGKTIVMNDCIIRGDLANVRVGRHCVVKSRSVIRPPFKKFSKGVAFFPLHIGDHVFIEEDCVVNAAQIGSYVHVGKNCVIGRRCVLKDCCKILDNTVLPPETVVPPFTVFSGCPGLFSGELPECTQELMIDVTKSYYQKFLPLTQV
Sequence of dynactin pointed end complex (ZZ-TEV-Arp11, p62, p25, p27) (O00399 whole entry, chain 4 of 4): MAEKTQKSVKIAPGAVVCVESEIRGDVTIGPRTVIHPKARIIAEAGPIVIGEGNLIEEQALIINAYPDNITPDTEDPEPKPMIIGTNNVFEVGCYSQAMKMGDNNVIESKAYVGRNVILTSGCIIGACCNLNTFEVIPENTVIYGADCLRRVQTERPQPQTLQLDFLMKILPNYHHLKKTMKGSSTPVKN
The series “JIP3^1–560” deals with B10. Description: cryo-EM structure.

As a reminder, the stoichiometry N is a count of units in the complex or per binding partner.

B1: GST-JIP3^563–585 (JIP3^helix construct) (domain or fragment)
chain: SVQEKKKSTIWQFFSRLFSSSSS
Turning to B1, the binding result in series [1] is “binds”.

In the case of B2, in the series with LIS1 (full length human), the binding result is “binds”.

B3: LIS1^mut (natural protein)
chain: MVASQEARDELNRAIADYLRSNGYEEAYSVFKKEAELDVNEELDKEYAGLLEEEWAAVAELAEEVMELRSKLNEAKEEFTSGGPLGQKRDPKEWIPRPPEKYALSGHRSPVTRVIFHPVFSVMVSASEDATIKVWDYETGDFERTLKGHTDSVQDISFDHSGKLLASCSADMTIKLWDFQGFECIRTMHGHDHNVSSVAIMPNGDHIVSASRDKTIKMWEVQTGYCVKTFTGHREWVRMVRPNQDGTLIASCSNDQTVRVWVVATKECKAELREHEHVVECISWAPESSYSSISEATGSETKKSGKPGPFLLSGSRDKTIKMWDVSTGMCLMTLVGHDNWVRGVLFHSGGKFILSCADDKTLRVWDYKNKRCMKTLNAHEHFVTSLDFHKTAPYVVTGSVDQTVKVWECR
As to B3, in the series “SEC-MALS”, the “stoichiometry N” value was 2.

B4: JIP3^1–185 (domain or fragment)
chain: MMEIQMDEGGGVVVYQDDYCSGSVMSERVSGLAGSIYREFERLIHCYDEEVVKELMPLVVNVLENLDSVLSENQEHEVELELLREDNEQLLTQYEREKALRKQAEEKFIEFEDALEQEKKELQIQVEHYEFQTRQLELKAKNYADQISRLEERESEMKKEYNALHQRHTEMIQTYVEHIERSKMQ
On to B4, for which the binding result in series [2] is reported as “binds”.

B5: human Arf6 (12-175_Q67L) (domain or fragment)
chain: KEMRILMLGLDAAGKTTILYKLKLGQSVTTIPTVGFNVETVTYKNVKFNVWDVGGLDKIRPLWRHYYTGTQGLIFVVDCADRDRIDEARQELHRIINDREMRDAIILIFANKQDLPDAMKPHEIQEKLGLTRIRDRNWYVQPSCATSGDGLYEGLTWLTSNYKS
Consider B5, for which the binding result in series [3] and in series [4] was “binds” each time.

B6: LIS1-N (residues 1-90) (domain or fragment)
chain: MVLSQRQRDELNRAIADYLRSNGYEEAYSVFKKEAELDVNEELDKKYAGLLEKKWTSVIRLQKKVMELESKLNEAKEEFTSGGPLGQKRD
For B6, the binding result in [5] is reported as “binds”. As to B7, the binding result in “cryo-EM structure” is recorded as “binds”.

B8: GCN4-WD40-SNAP (other)
chain: GSGSVKQLEDKVEELLSKNAHLENEVARLKKLVSGGPLGQKRDPKEWIPRPPEKYALSGHRSPVTRVIFHPVFSVMVSASEDATIKVWDYETGDFERTLKGHTDSVQDISFDHSGKLLASCSADMTIKLWDFQGFECIRTMHGHDHNVSSVAIMPNGDHIVSASRDKTIKMWEVQTGYCVKTFTGHREWVRMVRPNQDGTLIASCSNDQTVRVWVVATKECKAELREHEHVVECISWAPESSYSSISEATGSETKKSGKPGPFLLSGSRDKTIKMWDVSTGMCLMTLVGHDNWVRGVLFHSGGKFILSCADDKTLRVWDYKNKRCMKTLNAHEHFVTSLDFHKTAPYVVTGSVDQTVKVWECR
Turning to B8, in the series “SEC-MALS”, the “stoichiometry N” value was determined as 2.

B9: MBP-DIC-N (dynein intermediate chain 1-76) (domain or fragment)
chain: MSDKSELKAELERKKQRLAQIREEKKRKEEERKKKETDQKKEAVAPVQEESDLEKKRREAEALLQSMGLTPESPIV
With B9, the binding result in series [6] and in series [5] was “binds” throughout.

On to B10, for which the binding result in series [7] is “binds”.

For B11, the binding result with JIP3^1–560 is on record as “binds”.
